Experiments:
[1] = target: PapDG chaperone-adhesin complex (His-tagged PapD, class II PapG), purified and coumarin-labeled (Escherichia coli) (UniProt P15319); test: other fluorescence titration
[2] = target: PapC usher (Escherichia coli) (UniProt P07110); conditions: cited from earlier work

“PapC usher, wild type, purified, His-tag cleaved off (pDG2) (from UniProt P07110 25-836) (natural protein)” gave a Kd [1] of 0.059 µM.
In the case of “PapC F21A, purified, His-tag cleaved off (pQY21) (from UniProt P07110 25-836) (natural protein)”, the Kd [1] is reported as 0.062 µM.
With “PapC R652A, purified, His-tag cleaved off (pQY652) (natural protein)” the Kd [1] was 1.59 µM.
For “PapDG chaperone-subunit complex (from UniProt P15319)”, the Kd [2] is given as 0.09 µM.
